Here are results for two molecules from patent US8692070B2, “Plants with improved nitrogen utilization and stress tolerance” (Iowa Corn Promotion Board, priority 2009, dated 2014).

Type in all cases: biochemical, Brevibacillus laterosporus
Test [1] has as its system NAGK enzyme. The test is described as follows: NAGK enzyme assay, titration with arginine. The following applies: NAGK 100 ng/mL; for A540 nm: 70 mM NAG, 30 minutes 37° C., no-arginine control 0.284. The protocol:
(§1) The NAGK enzyme assay was adapted from the method of Denes (1970). Product formation was quantified using a Spectramax 190 spectrophotometer at 540 nm.
The following master mix for NAGK in vitro enzyme assays was prepared for the purpose of determining the effect of arginine on NAGK enzyme activity: 50 mM Tris; final pH was 5.5;100 mM hydroxylamine (NH2OH); 10 mM MgCl2; 7 mM ATP; 70 mM NAG.
This master mix was subdivided into individual wells in a 96-well plate (200 uL/well final volume), and then varying concentrations of arginine (0.15 mM to 10 mM) were then added to individual wells. The enzyme reactions were then initiated by addition of NAGK enzyme (100 ng/mL). Following 30 minutes of incubation at 37° C., the absorbance of each sample was quantified. A control reaction without arginine was prepared an analyzed alongside.

Test [2] deals with NAGK enzyme. The test is described as follows: NAGK enzyme assay, titration with substrate (NAG). The following applies: 1000 ng/mL NAGK, 1 hour 37° C., no-substrate control (0.041) subtracted. The protocol: as §1
The following master mix for NAGK in vitro enzyme assays was prepared for the purpose of titrating the substrate (NAG) into the reaction: 50 mM Tris; final pH was 5.5; 100 mM hydroxylamine (NH2OH); 10 mM MgCl2; 7 mM ATP; 1000 ng/mL NAGK enzyme (from protein extract).
This master mix was subdivided into individual wells in a 96-well plate (200 uL/well final volume), and reactions were then initiated by adding various concentrations of the substrate NAG into individual sample wells. The NAG concentrations ranged from 1.6 mM up to 100 mM. Following 1 hour of incubation at 37° C., the absorbance of each sample was quantified. A control reaction without substrate was prepared an analyzed alongside.

The subject of test [3] is NAGK enzyme. The test is described as follows: NAGK enzyme assay, titration with NAGK enzyme. The following applies: 70 mM NAG, 1 hour 37° C.; for A540 nm: buffer control (0.040) subtracted. The protocol: NAGK overexpression vector pAX4389 was transformed into electrocompetent E. coli cells (BL21 *DE3, Invitrogen) and single colonies were obtained by selection on the antibiotic kanamycin. An individual colony was then grown in liquid medium (LB broth) until the culture absorbance (at 600 nm) reached 0.6, and then 0.5 mM IPTG was added to induce expression from the T7 promoter. Induction was carried out overnight at 16° C. The following day, the induced culture was centrifuged and the pellet was frozen for two hours at −20° C. After thawing on ice, the pellet was resuspended in […] of lysis buffer (50 mM Hepes, pH 7.0, 50 mM NaCl), treated with Lysozyme (Novagen) at room temperature for 30 minutes, and then sonicated to lyse the cells. Insoluble material was separated from the soluble protein extract through centrifugation. This protein extract was then stored in an ice bucket, and NAGK enzyme assays were prepared a short time later. As a negative control, a control vector was prepared alongside that directed the overexpression of a bacterial EPSPS enzyme in the same base vector (pRSF-1b). This vector was likewise transformed into the same E. coli cell line and a transformant colony was selected for protein overexpression and a protein extract was prepared alongside NAGK.
as §1
A master mix for the NAGK in vitro reaction was prepared with the following components: 50 mM Tris, pH 8.0; final pH of the master mix was 5.5; 100 mM hydroxylamine (NH2OH); 10 mM MgCl2; 7 mM ATP; 70 mM N-acetylglutamate (NAG).
This master mix was subdivided into individual wells in a 96-well plate (200 uL/well final volume), and reactions were then initiated by adding various concentrations of NAGK protein extract into individual sample wells. Following 1 hour of incubation at 37° C., the absorbance of each sample was quantified. The quantity of NAGK protein in the extract was estimated by loading dilutions of the extract on a SDS-polyacrylamide gel alongside known concentrations of a bovine serum albumin standard, and then staining the gel with Coomassie protein stain (Simply Blue, Invitrogen).
By this method, it was observed that addition of NAGK protein extract at concentrations as low as 1 ng/mL generated an absorbance product at 540 nm. The absorbance results from the enzyme product (N-actylglutamyl-5-phosphate) reacting with hydroxylamine to create the absorbent compound N-acetyglutamyl-5-hydroxamate. The graph (FIG. 1) and table (Table 3) show the absorbance at each of 6 different concentrations of NAGK protein. The baseline absorbance generated by a buffer control (A540=0.04) was subtracted from each NAGK absorbance value.

Take `N=C(N)NCCC[C@H](N)C(=O)O` [Arginine, arginine]: the A540 nm in the test on NAGK enzyme [1] (Arginine 0.16 mM) was 0.291; with NAGK enzyme [1] (Arginine 0.31 mM), 0.259; in the test on NAGK enzyme [1] (Arginine 0.63 mM) it was 0.263; in the test with NAGK enzyme [1] (Arginine 1.25 mM) it was 0.237; in the test on NAGK enzyme [1] (Arginine 2.5 mM), 0.257; in the test on NAGK enzyme [1] (Arginine 5 mM), 0.266. This molecule displayed an A540 nm with NAGK enzyme [1] (Arginine 10 mM) of 0.287. Besides, the “effect of arginine on product formation by the NAGK enzyme” value in the test on NAGK enzyme [1] (arginine 0.15 mM to 10 mM) is on record as “insensitive”.

B1: NAGK: arginine-insensitive N-acetyl glutamate kinase (SEQ ID NO:2) from Brevibacillus laterosporus, 6-histidine tagged, E. coli protein extract (protein)
chain: MLHEVMVIKCGGSMLEQLPESFYNKLATLQAEGRSIVIVHGGGPAINQMLEQLKIEPTFSNGLRVTDEPTMQAVEMVLSGPINKLVVRKLLHAGGKAWGLSGVDGSLLQAVEKTQGLGLVGSITVVDQAPLQLLLSNGYIPVVSPIAVSEDGRTRYNCNADTVAGAIASALGAKQLLMLTDVPGIWAENELGEKQLLPTVTTEDIQLMMKNQIITGGMIPKVQAALDALAQGVQEVVICKGEAETLDGVVKGMAVGTSISAEMSRGQDSQAFISNKV
modifications: Zea mays
In the case of B1, the A540 nm is on record as 0.07 with NAGK enzyme [2] (NAG 1.6 mM); 0.13 with NAGK enzyme [2] (NAG 3.1 mM); 0.0212 in the test on NAGK enzyme [2] (NAG 6.3 mM); 0.313 in the test on NAGK enzyme [2] (NAG 12.5 mM); 0.411 in the test with NAGK enzyme [2] (NAG 25 mM); 0.515 with NAGK enzyme [2] (NAG 50 mM). The A540 nm is 0.57 in the test with NAGK enzyme [2] (NAG 100 mM); 0.001 with NAGK enzyme [3] (NAGK 1 ng/mL); 0.002 in the test on NAGK enzyme [3] (NAGK 3.9 ng/mL); 0.039 in the test on NAGK enzyme [3] (NAGK 15.6 ng/mL); 0.0159 in the test on NAGK enzyme [3] (NAGK 62.5 ng/mL); 0.518 in the test with NAGK enzyme [3] (NAGK 250 ng/mL). Besides, in the test with NAGK enzyme [3] (NAGK 1000 ng/mL), the A540 nm is on record as 0.872. In addition, the “lowest concentration of NAGK protein extract that generated an absorbance product at 540 nm” value with NAGK enzyme [3] is on record as 1 ng/mL.
